Measurements: patent publication US20140017790A1, “CONTROL AGENT FOR CONTROLLING UNDIFFERENTIATED STATE AND USE THEREOF” (RIKEN, priority 2011, published 2014)

What was measured:
Type in all cases: cell-based
[1] = tested on: ERK1/2; test: Western blotting, phosphorylation of ERK1/2 in mouse iPS cells; conditions: CCL2 overexpressed, relative to negative control
Description: The mouse iPS cells transfected with the Ccl2 expression vector were cultured for 24 hours in the same manner as in Example 1. After the culture, the mouse iPS cells were washed with PBS, and then were suspended in 100 μl of a mammalian m-PER lysis buffer. The suspension was passed through a 26-gauge needle for 10 minutes to homogenize the cells. Then, the suspension was centrifuged at 13,000 rpm and 4° C. for 5 minutes, and the supernatant was collected. The protein concentration in the supernatant was measured using a Pierce (registered trademark) BCA Protein assay (trade name, Thermo Scientific). Next, the supernatant was subjected to Western blotting to detect a target protein. Specifically, first, the supernatant (total protein: 10 μg) was applied to a Novex Gel electrophoresis system with 4%-12% Bis-Tris gels, and was blotted on a nitrocellulose membrane. Then, the membrane was incubated with a primary antibody against the target protein. After washing the membrane, the membrane was incubated with a labeled secondary antibody labeled with horseradish peroxidase, and a color-developing reaction was caused using a coloring reagent (trade name: ECL plus, GE Healthcare). Then, luminescence on the membrane was detected using a Fuji LAS-3000 luminescent image analyzer. […]

[2] = tested on: mouse iPS cells; test: quantitative RT-PCR of undifferentiated marker genes, recombinant CCL2 added to mouse iPS cells under feeder free conditions
Description: (§1) A PrimeScript RT-PCR Kit (trade name, TAKARA BIO INC.), an ABI 7500 Fast real time PCR system (trade name, Applied BioSystems), and a SYBR (registered trademark) Premix Ex Taq (trade name, TAKARA BIO INC.) were used in accordance with their protocols. PCR was carried out by conducting 40 cycles of treatment with a treatment at 94° C. for 5 second and at 62.5° C. for 20 seconds as 1 cycle. The expression level of each gene was calculated by normalizing the relative amount of mRNA in the gene to Gapdh mRNA according to the 2^−ΔΔ^CT method (Thomse R, Solvsten C A, Linnet T E, et al., Analysis of qPCR data by converting exponentially related Ct values into linearly related XO values. J Bioinform Comput Biol 2010: 8: 885-900.).
The medium of a negative control used was the above-described DMEM containing the above-described LIF. […]
Furthermore, after the culture of the mouse iPS cells, the expression level of the Tbx3 gene was determined in the same manner as in the item (1) of Example 1. Then, the fold change in expression level relative to the negative control was calculated. […]
The mouse iPS cells cultured under the feeder free conditions were cultured in the medium of the example and the medium of the comparative example, respectively. […] 24 hours after the culture, the expression levels of the undifferentiated marker genes were determined in the same manner as in the item (1) of Example 1. […]

[3] = tested on: mouse ES cells; test: quantitative RT-PCR of undifferentiated marker genes in mouse ES cells; conditions: LIF 1000 units/ml, CCL2 500 ng/ml
Description: as §1
[…] Furthermore, as a negative control, the expression levels of the undifferentiated marker genes were determined in the same manner regarding the mouse ES […] Then, the fold changes in the expression level relative to the negative control were calculated.
FIG. […] The vertical axis indicates the fold change (-fold), and the horizontal axis indicates the examined undifferentiated marker genes. […] In the former case (open bar), the concentration of the LIF in the medium was 1000 units/ml and the concentration of the CCL2 in the medium was 500 ng/ml. […]

[4] = tested on: AKT; test: Western blotting, phosphorylation of AKT in human iPS cells; conditions: feeder conditions, 6 days, versus negative control (bFGF)
Description: With respect to the supernatant prepared in the above item (1), the target protein detection was carried out in the same manner as in Example 4. Furthermore, as a negative control, the target protein detection was carried out in the same manner, except that bFGF was added instead of the CCL2.
Then, the ratio of the phosphorylated AKT to the non-phosphorylated AKT (p-AKT/AKT) was determined. Assuming that the value of the p-AKT/AKT in the negative control was “1”, the relative value was calculated. Also, the ratio of the KLF4 gene expression to the GAPDH gene expression (KLF4/GAPDH) was determined. Assuming that KLF4/GAPDH in the negative control was “1”, the relative value was calculated.

B1: CCL2: mouse recombinant CCL2 (MCP-1, #479-JE-010, R&D Systems); in Examples 1, 3, 4(1), 5 mouse CCL2 (SEQ ID NO: 3) overexpressed from Ccl2 expression vector (protein, listed as Mus musculus)
chain: MQVPVMLLGLLFTVAGWSIHVLAQPDAVNAPLTCCYSFTSKMIPMSRLESYKRITSSRCPKEAVVFVTKLKREVCADPKKEWVQTYIKNLDRNQMRSEPTTLFKTASALRSSAPLNVKLTRKSEANASTTFSTTTSSTSVGVTSVTVN
phosphorylation of ERK1/2 (pERK1/2/ERK1/2) [1]: not promoted | expression level of the Tbx3 gene ([2]; recombinant CCL2 500 ng/ml added to PI3K inhibitor 5 ng/ml + LIF 25 units/ml): further increase | expression of each undifferentiated marker gene ([2]; recombinant CCL2 2500 ng/ml, no LIF, feeder free, 24 hours, relative to LIF 1000 units/ml): increased markedly | expression of the Klf4 gene, fold change relative to negative control [3]: increased markedly | expression of the Tbx3 gene, fold change relative to negative control [3]: increased markedly | phosphorylation of AKT (pAKT/AKT) [4]: not promoted
